B1: Hammerhead Ribozyme (parent)
chain: ACCGGAUGUGCUUUCCGGUCUGAUGAGUCCGUGAGGACGAAACAG

Variants of: B1
Assay: self-cleavage, relative activity (ratio to wild type); higher = more cleavage; co-transcriptional

| Variant | self-cleavage |
| --- | --- |
| ACCGGAUGUGCUCUCCGGUCUGAAGAGUCCGUGAGGACGAAACAG | 1.64 |
| ACCGGAUGUGCUCUCCGGUCUGACGAGUCCGUGAGGACGAAACAG | 1.31 |
| ACCGGAUGUGCUCUCCGGUCUGAGGAGUCCGUGAGGACGAAACAG | 0.837 |
| ACCGGAUGUGCUGUCCGGUCUGAUGAGUCCAUGAGGACGAAACAG | 1.1 |
| ACCGGAUGUGCUCUCCUGUCUGAUGAGUCCGUGAGGACGAAACAG | 0.884 |
| ACCGGAUGUGCUCUCCAGUCUGAUGAGUCCGUGAGGACGAAACAG | 0.809 |
| ACCGGAUGUGCUCUCCCGUCUGAUGAGUCCGUGAGGACGAAACAG | 0.573 |
| ACCGGAUGUGCUCUCCGGUCUGAUGAGUCCCUGAGGACGAAACAG | 1.13 |
| ACCGGAUGUGCUCUCCGGUCUGAUGAGUCCAUGAGGACGAAACAG | 1.04 |
| ACCGGAUGUGCUCUCCGGUCUGAUGAGUCCUUGAGGACGAAACAG | 1.22 |
| ACCGGAUGUGCUGUCCGGUCUGAUGAGUCCGUGAGGUCGAAACAG | 0.625 |
| ACCGGAUGUGCUGUCCGGUCUGAUGAGUCCGUGAGGGCGAAACAG | 0.868 |
| ACCGGAUGUGCUGUCCGGUCUGAUGAGUCCGUGAGGCCGAAACAG | 0.96 |
| ACCGGAUGUGCUGUCCGGUCUGAUGUGUCCGUGAGGACGAAACAG | 0.678 |
| ACCGGAUGUGCUGUCCGGUCUGAUGCGUCCGUGAGGACGAAACAG | 0.383 |
| ACCGGAUGUGCUGUCCGGUCUGAUGGGUCCGUGAGGACGAAACAG | 0.301 |
| ACCGGAUGUGCUGUCCAGUCUGAUGAGUCCGUGAGGACGAAACAG | 0.876 |
| ACCGGAUGUGCUGUCCUGUCUGAUGAGUCCGUGAGGACGAAACAG | 0.78 |
| ACCGGAUGUGCUGUCCCGUCUGAUGAGUCCGUGAGGACGAAACAG | 0.572 |
| ACCGGAUGUGCUGUCCGGUCUGAUGAAUCCGUGAGGACGAAACAG | 0.66 |
| ACCGGAUGUGCUGUCCGGUCUGAUGAUUCCGUGAGGACGAAACAG | 0.375 |
| ACCGGAUGUGCUGUCCGGUCUGAUGACUCCGUGAGGACGAAACAG | 0.546 |
| ACCGGAUGUGCUCUCCGGUCUGAUGAGUCCGUGAGUACGAAACAG | 0.598 |

| Variant | self-cleavage |
| --- | --- |
| ACCGGAUGUGCUCUCCGGUCUGAUGAGUCCGUGAGCACGAAACAG | 0.336 |
| ACCGGAUGUGCUCUCCGGUCUGAUGAGUCCGUGAGAACGAAACAG | 0.701 |
| ACCGGAUGUGCUGUCCGGUCUGAUGAGUCUGUGAGGACGAAACAG | 0.786 |
| ACCGGAUGUGCUGUCCGGUCUGAUGAGUCGGUGAGGACGAAACAG | 0.593 |
| ACCGGAUGUGCUGUCCGGUCUGAUGAGUCAGUGAGGACGAAACAG | 0.933 |
| ACCGGAUGUGCUGUCCGGUCUGAUGAGUCCGUGAGGACGAAACGG | 1.7 |
| ACCGGAUGUGCUGUCCGGUCUGAUGAGUCCGUGAGGACGAAACCG | 0.567 |
| ACCGGAUGUGCUGUCCGGUCUGAUGAGUCCGUGAGGACGAAACUG | 0.644 |
| ACCGGAUGUGCUCUCCGGUCUGAUGACUCCGUGAGGACGAAACAG | 0.985 |
| ACCGGAUGUGCUCUCCGGUCUGAUGAUUCCGUGAGGACGAAACAG | 0.673 |
| ACCGGAUGUGCUCUCCGGUCUGAUGAAUCCGUGAGGACGAAACAG | 1.09 |
| ACCGGAUGUGCUCUCCGGUCUGAUGAGUCCGUGAGGACGAAACAA | 0.878 |
| ACCGGAUGUGCUCUCCGGUCUGAUGAGUCCGUGAGGACGAAACAU | 0.965 |
| ACCGGAUGUGCUCUCCGGUCUGAUGAGUCCGUGAGGACGAAACAC | 0.743 |
| ACCGGAUGUGCUCUCCGGUCUCAUGAGUCCGUGAGGACGAAACAG | 0.247 |
| ACCGGAUGUGCUCUCCGGUCUAAUGAGUCCGUGAGGACGAAACAG | 0.243 |
| ACCGGAUGUGCUCUCCGGUCUUAUGAGUCCGUGAGGACGAAACAG | 0.346 |
| ACCGGAUGUGCUGUCCGGUCUGAUGAGUCCGUGAGGAGGAAACAG | 0.531 |
| ACCGGAUGUGCUGUCCGGUCUGAUGAGUCCGUGAGGAUGAAACAG | 0.724 |
| ACCGGAUGUGCUGUCCGGUCUGAUGAGUCCGUGAGGAAGAAACAG | 0.434 |
| ACCGGAUGUGCUGUUCGGUCUGAUGAGUCCGUGAGGACGAAACAG | 0.763 |
| ACCGGAUGUGCUGUACGGUCUGAUGAGUCCGUGAGGACGAAACAG | 0.701 |
| ACCGGAUGUGCUGUGCGGUCUGAUGAGUCCGUGAGGACGAAACAG | 0.715 |

| Variant | self-cleavage |
| --- | --- |
| ACCGGAUGUGCUCUCCGGUCUGAUGAGUCCGAGAGGACGAAACAG | 0.668 |
| ACCGGAUGUGCUCUCCGGUCUGAUGAGUCCGCGAGGACGAAACAG | 1.11 |
| ACCGGAUGUGCUCUCCGGUCUGAUGAGUCCGGGAGGACGAAACAG | 0.808 |
| ACCGGAUGUGCUGUCCGGUCUGAUGAGUCCGUGAGGACGUAACAG | 0.303 |
| ACCGGAUGUGCUGUCCGGUCUGAUGAGUCCGUGAGGACGCAACAG | 0.454 |
| ACCGGAUGUGCUGUCCGGUCUGAUGAGUCCGUGAGGACGGAACAG | 0.281 |
| ACCGGAUGUGCUGUCCGAUCUGAUGAGUCCGUGAGGACGAAACAG | 0.642 |
| ACCGGAUGUGCUGUCCGUUCUGAUGAGUCCGUGAGGACGAAACAG | 0.701 |
| ACCGGAUGUGCUGUCCGCUCUGAUGAGUCCGUGAGGACGAAACAG | 0.696 |
| ACCGGAUGUGCUCUCCGGUCUGAUGAGUCCGUGAGGACGAAAUAG | 0.499 |
| ACCGGAUGUGCUGUCCGGUCUGAUGAGUCCGUGAGGACGAAACAG | 0.924 |
| ACCGGAUGUGCUGUCCGGUCUGGUGAGUCCGUGAGGACGAAACAG | 0.368 |
| ACCGGAUGUGCUGUCCGGUCUGUUGAGUCCGUGAGGACGAAACAG | 0.405 |
| ACCGGAUGUGCUGUCCGGUCUGCUGAGUCCGUGAGGACGAAACAG | 0.356 |
| ACCGGAUGUGCUCUCCGCUCUGAUGAGUCCGUGAGGACGAAACAG | 0.842 |
| ACCGGAUGUGCUCUCCGAUCUGAUGAGUCCGUGAGGACGAAACAG | 0.955 |
| ACCGGAUGUGCUCUCCGUUCUGAUGAGUCCGUGAGGACGAAACAG | 0.933 |
| ACCGGAUGUGCUGUCCGGUCUGAUCAGUCCGUGAGGACGAAACAG | 0.315 |
| ACCGGAUGUGCUGUCCGGUCUGAUAAGUCCGUGAGGACGAAACAG | 0.367 |
| ACCGGAUGUGCUGUCCGGUCUGAUUAGUCCGUGAGGACGAAACAG | 0.303 |
| ACCGGAUGUGCUGUCCGGUCUGAUGAGUCCGUGAGGACGAAAUAG | 0.596 |
| ACCGGAUGUGCUGUCCGGUCUGAUGAGUCCGUGAGGACGAAAAAG | 0.369 |
| ACCGGAUGUGCUGUCCGGUCUGAUGAGUCCGUGAGGACGAAAGAG | 0.335 |

| Variant | self-cleavage |
| --- | --- |
| ACCGGAUGUGCUCCCCGGUCUGAUGAGUCCGUGAGGACGAAACAG | 0.862 |
| ACCGGAUGUGCUCACCGGUCUGAUGAGUCCGUGAGGACGAAACAG | 0.621 |
| ACCGGAUGUGCUCGCCGGUCUGAUGAGUCCGUGAGGACGAAACAG | 0.364 |
| ACCGGAUGUGCUGUCCGGUCUGAUGAGUCCGUGGGGACGAAACAG | 0.886 |
| ACCGGAUGUGCUGUCCGGUCUGAUGAGUCCGUGUGGACGAAACAG | 0.976 |
| ACCGGAUGUGCUGUCCGGUCUGAUGAGUCCGUGCGGACGAAACAG | 0.79 |
| ACCGGAUGUGCUCUCCGGUCUGAUUAGUCCGUGAGGACGAAACAG | 0.367 |
| ACCGGAUGUGCUCUCCGGUCUGAUCAGUCCGUGAGGACGAAACAG | 0.264 |
| ACCGGAUGUGCUCUCCGGUCUGAUAAGUCCGUGAGGACGAAACAG | 0.395 |
| ACCGGAUGUGCUCUCCGGUCUGAUGAGUCCGUUAGGACGAAACAG | 1.14 |
| ACCGGAUGUGCUCUCCGGUCUGAUGAGUCCGUAAGGACGAAACAG | 1.37 |
| ACCGGAUGUGCUCUCCGGUCUGAUGAGUCCGUCAGGACGAAACAG | 0.889 |
| ACCGGAUGUGCUGUCCGGUCUCAUGAGUCCGUGAGGACGAAACAG | 0.315 |
| ACCGGAUGUGCUGUCCGGUCUAAUGAGUCCGUGAGGACGAAACAG | 0.383 |
| ACCGGAUGUGCUGUCCGGUCUUAUGAGUCCGUGAGGACGAAACAG | 0.306 |
| ACCGGAUGUGCUCUCCGGUCCGAUGAGUCCGUGAGGACGAAACAG | 1.23 |
| ACCGGAUGUGCUCUCCGGUCAGAUGAGUCCGUGAGGACGAAACAG | 0.754 |
| ACCGGAUGUGCUCUCCGGUCGGAUGAGUCCGUGAGGACGAAACAG | 0.864 |
| ACCGGAUGUGCUGUCGGGUCUGAUGAGUCCGUGAGGACGAAACAG | 0.899 |
| ACCGGAUGUGCUGUCUGGUCUGAUGAGUCCGUGAGGACGAAACAG | 0.836 |
| ACCGGAUGUGCUGUCAGGUCUGAUGAGUCCGUGAGGACGAAACAG | 0.765 |
| ACCGGAUGUGCUCUCCGGUCUGAUGAGCCCGUGAGGACGAAACAG | 1.29 |
| ACCGGAUGUGCUCUCCGGUCUGAUGAGGCCGUGAGGACGAAACAG | 0.935 |

| Variant | self-cleavage |
| --- | --- |
| ACCGGAUGUGCUCUCCGGUCUGAUGAGACCGUGAGGACGAAACAG | 0.739 |
| ACCGGAUGUGCUCUCCGGUCUGAUGAGUCCGUGACGACGAAACAG | 0.774 |
| ACCGGAUGUGCUCUCCGGUCUGAUGAGUCCGUGAAGACGAAACAG | 0.552 |
| ACCGGAUGUGCUCUCCGGUCUGAUGAGUCCGUGAUGACGAAACAG | 0.744 |
| ACCGGAUGUGCUGUCCGGUUUGAUGAGUCCGUGAGGACGAAACAG | 0.435 |
| ACCGGAUGUGCUGUCCGGUGUGAUGAGUCCGUGAGGACGAAACAG | 0.244 |
| ACCGGAUGUGCUGUCCGGUAUGAUGAGUCCGUGAGGACGAAACAG | 0.374 |
| ACCGGAUGUGCUGUCCGGUCUGAUGAGUGCGUGAGGACGAAACAG | 0.581 |
| ACCGGAUGUGCUGUCCGGUCUGAUGAGUUCGUGAGGACGAAACAG | 0.82 |
| ACCGGAUGUGCUGUCCGGUCUGAUGAGUACGUGAGGACGAAACAG | 0.595 |
| ACCGGAUGUGCUCUCCGGGCUGAUGAGUCCGUGAGGACGAAACAG | 0.311 |
| ACCGGAUGUGCUCUCCGGCCUGAUGAGUCCGUGAGGACGAAACAG | 0.877 |
| ACCGGAUGUGCUCUCCGGACUGAUGAGUCCGUGAGGACGAAACAG | 0.351 |
| ACCGGAUGUGCUGUCCGGUCUGAUGAGUCCGUGAGGACGAAUCAG | 0.333 |
| ACCGGAUGUGCUGUCCGGUCUGAUGAGUCCGUGAGGACGAAGCAG | 0.316 |
| ACCGGAUGUGCUGUCCGGUCUGAUGAGUCCGUGAGGACGAACCAG | 0.276 |
| ACCGGAUGUGCUCUCCGGUCUGAUGAGUCCGUGAGGACCAAACAG | 0.471 |
| ACCGGAUGUGCUCUCCGGUCUGAUGAGUCCGUGAGGACAAAACAG | 0.293 |
| ACCGGAUGUGCUCUCCGGUCUGAUGAGUCCGUGAGGACUAAACAG | 0.419 |
| ACCGGAUGUGCUGUCCGGUCUGAUGAGUCCGUGAGGACGAUACAG | 0.272 |
| ACCGGAUGUGCUGUCCGGUCUGAUGAGUCCGUGAGGACGAGACAG | 0.423 |
| ACCGGAUGUGCUGUCCGGUCUGAUGAGUCCGUGAGGACGACACAG | 0.348 |
